# Laboratory results as given in patent US20160304578A1 (XYPHOS BIOSCIENCES, published 2016).
# B1: K165S (designed binder)
# α1-α2 domain displayed on M13 phage (pIII fusion): AAEPHSLWYNFTIIHLPRHGQQWCEVQSQVDQKNFLSYDCGSDKVLSMGHLEEQLYATDAWGKQLEMLREVGQRLRLELADTELEDFTPSGPLTLQVRMSCESEADGYIRGSWQFSFDGRKFLLFDSNNRKWTVVHAGARRMKEKWEKDSGLTTFFKMVSMRDCSSWLRDFLMHRKKRLEPTAPPMV
# B2: R162G (designed binder)
# α1-α2 domain displayed on M13 phage (pIII fusion): AAEPHSLWYNFTIIHLPRHGQQWCEVQSQVDQKNFLSYDCGSDKVLSMGHLEEQLYATDAWGKQLEMLREVGQRLRLELADTELEDFTPSGPLTLQVRMSCECEADGYIRGSWQFSFDGRKFLLFDSNNRKWTVVHAGARRMKEKWEKDSGLTTFFKMVSMGDCKSWLRDFLMHRKKRLEPTAPPMV
# B3: K165P (designed binder)
# α1-α2 domain displayed on M13 phage (pIII fusion): AAEPHSLWYNFTIIHLPRHGQQWCEVQSQVDQKNFLSYDCGSDKVLSMGHLEEQLYATDAWGKQLEMLREVGQRLRLELADTELEDFTPSGPLTLQVRMSCESEADGYIRGSWQFSFDGRKFLLFDSNNRKWTVVHAGARRMKEKWEKDSGLTTFFKMVSMRDCPSWLRDFLMHRKKRLEPTAPPMV
# B4: R80L (designed binder)
# α1-α2 domain displayed on M13 phage (pIII fusion): AAEPHSLSYDITVIPKFRPGPRWCAVQGQVDEKTFLHYDCGNKTVTPVSPLGKKLNVTTAWKAQNPVLREVVDILTEQLLDIQLENYTPKEPLTLQARMSCEQKAEGHSSGSWQFSFDGQIFLLFDSEKRMWTTVHPGARKMKEKWENDKVVAMSFHYFSMGDCIGWLEDFLMGMDSTLEPSAGAPPMV
# B5: V151D (designed binder)
# α1-α2 domain displayed on M13 phage (pIII fusion): AAEPHSLCYDITVIPKFRPGPRWCAVQGQVDEKTFLHYDCGNKTVTPVSPLGKKLNVTTAWKAQNPVLREVVDILTEQLRDIQLENYTPKEPLTLQARMSCEQKAEGHSSGSWQFSFDGQIFLLFDSEKRMWTTVHPGARKMKEKWENDKDVAMSFHYFSMGDCIGWLEDFLMGMDSTLEPSAGAPPMV
# B6: V152L (designed binder)
# α1-α2 domain displayed on M13 phage (pIII fusion): AAEPHSLSYDITVIPKFRPGPRWCAVQGQVDEKTFLHYDCGNKTVTPVSPLGKKLNVTTAWKAQNPVLREVVDILTEQLRDIQLENYTPKEPLTLQARMSCEQKAEGHSSGSWQFSFDGQIFLLFDSEKRMWTTVHPGARKMKEKWENDKVLAMSFHYFSMGDCIGWLEDFLMGMDSTLEPSAGAPPMV
# B7: α1-α2 variant 16 (designed binder)
# chain: EPHSLRYNLTVLSWDGSVQSGFLTEVHLDGQPFLRCDRQKCRAKPQGQWAEDVLGNKTWDRETRDLTGWGKDLRMTLAHIKDQKEGLHSLQEIRVCEIHEDNSTRSSQHFYYDGELFLSQNLETLEWTMPQSSRAQTLAMNVRNFLKEDAMETDTHYHAMRADCLQELRRYLKSGVVLRRTVPPMVQVTRSEASGGSGDRVTITCRASQDVSTAVAWYQQKPGKAPKLLIYSASFLYSGVPSRFSGSGSGTDFTLTISSLQPEDFATYYCQQSYTTPPTFGQGTKVEIKGGSSRSSSSGGGGSGGGGEVQLVESGGGLVQPGGSLRLSCAASGFTFTSTGISWVRQAPGKGLEWVGRIYPTNGSTNYADSVKGRFTISADTSKNTAYLQMNSLRAEDTAVYYCARTYGIYDLYVDYTEYVMDYWGQGTLVTVSSGGSSRSSSSGGGGSGGGGDIQMTQSPSSLSASGGSGQITVTCRASGFYPWNITLSWRQDGVSLSHDTQQWGDVLPDGQGTYQTWVATRISQGEEQRFTCYMEHSGQHSTHPVPSGKGSHHHHHH
# B8: α1-α2 variant 18 (designed binder)
# chain: EPHSLRYNLTVLSWDGSVQPGFLTEVHLDGQPFLRCDRQKCRAKPQGQWAEDVLGNKTWDRETRDLTLWGKDLRMTLAHIKDQKEGLHSLQEIRVCEIHEDNSTRSSQHFYYDGELFLSQNLETLEWTMPQSSRAQTLAMNVRNFLKEDAMETDTHYHAMRADCLQELRRYLKSGVVLRRTVPPMVQVTRSEASGGSGDRVTITCRASQDVSTAVAWYQQKPGKAPKLLIYSASFLYSGVPSRFSGSGSGTDFTLTISSLQPEDFATYYCQQSYTTPPTFGQGTKVEIKGGSSRSSSSGGGGSGGGGEVQLVESGGGLVQPGGSLRLSCAASGFTFTSTGISWVRQAPGKGLEWVGRIYPTNGSTNYADSVKGRFTISADTSKNTAYLQMNSLRAEDTAVYYCARTYGIYDLYVDYTEYVMDYWGQGTLVTVSSGGSSRSSSSGGGGSGGGGDIQMTQSPSSLSASGGSGQITVTCRASGFYPWNITLSWRQDGVSLSHDTQQWGDVLPDGQGTYQTWVATRISQGEEQRFTCYMEHSGQHSTHPVPSGKGSHHHHHH
# B9: α1-α2 variant 25 (designed binder)
# chain: EPHSLRYNLTVLSWDGSVQSGFLTEVHLDGQPFLRCDRQKCRAKPQGQWAEDVLGNKTWDRETRDLTGWGKDLRMTLAHIKDQKEGLHSLQEIRVCEIHEDNSTRSSQHFYYDGELFLSQNLETLEWTMPQSSRAQTLAMNVRNFLKEDAMETDTHYHAMRADCLSELRRYLKSGVVLRRTVPPMVQVTRSEASGGSGDRVTITCRASQDVSTAVAWYQQKPGKAPKLLIYSASFLYSGVPSRFSGSGSGTDFTLTISSLQPEDFATYYCQQSYTTPPTFGQGTKVEIKGGSSRSSSSGGGGSGGGGEVQLVESGGGLVQPGGSLRLSCAASGFTFTSTGISWVRQAPGKGLEWVGRIYPTNGSTNYADSVKGRFTISADTSKNTAYLQMNSLRAEDTAVYYCARTYGIYDLYVDYTEYVMDYWGQGTLVTVSSGGSSRSSSSGGGGSGGGGDIQMTQSPSSLSASGGSGQITVTCRASGFYPWNITLSWRQDGVSLSHDTQQWGDVLPDGQGTYQTWVATRISQGEEQRFTCYMEHSGQHSTHPVPSGKGSHHHHHH
# notes: Expressed in HEK293 (Expi293)
# B10: α1-α2 variant 17 (designed binder)
# chain: EPHSLRYNLTVLSWDGSVQSGFLTEVHLDGQPFLRCDRQKCRAKPQGQWAEDVLGNKTWDRETRDLTLWGKDLRMTLAHIKDQKEGLHSLQEIRVCEIHEDNSTRSSQHFYYDGELFLSQNLETLEWTMPQSSRAQTLAMNVRNFLKEDAMETDTHYHAMRADCLQELRRYLKSGVVLRRTVPPMVQVTRSEASGGSGDRVTITCRASQDVSTAVAWYQQKPGKAPKLLIYSASFLYSGVPSRFSGSGSGTDFTLTISSLQPEDFATYYCQQSYTTPPTFGQGTKVEIKGGSSRSSSSGGGGSGGGGEVQLVESGGGLVQPGGSLRLSCAASGFTFTSTGISWVRQAPGKGLEWVGRIYPTNGSTNYADSVKGRFTISADTSKNTAYLQMNSLRAEDTAVYYCARTYGIYDLYVDYTEYVMDYWGQGTLVTVSSGGSSRSSSSGGGGSGGGGDIQMTQSPSSLSASGGSGQITVTCRASGFYPWNITLSWRQDGVSLSHDTQQWGDVLPDGQGTYQTWVATRISQGEEQRFTCYMEHSGQHSTHPVPSGKGSHHHHHH
# B11: α1-α2 variant 48 (designed binder)
# chain: EPHSLRYNLTVLSWDGSVQSGFLTEVHLDGQPFLRCDRQKCRAKPQGQWAEDVLGNKTWDRETRDLTGWGKDLRMTLAHIKDQKEGLHSLQEIRVCEIHEDNSTRSSQHFYYDGELFLSQNLETLEWTMPQSSRAQTLAMNVRNFLKEDAMATDTHYIAMRADCLAELRRYLKSGVVLRRTVPPMVQVTRSEASGGSGDRVTITCRASQDVSTAVAWYQQKPGKAPKLLIYSASFLYSGVPSRFSGSGSGTDFTLTISSLQPEDFATYYCQQSYTTPPTFGQGTKVEIKGGSSRSSSSGGGGSGGGGEVQLVESGGGLVQPGGSLRLSCAASGFTFTSTGISWVRQAPGKGLEWVGRIYPTNGSTNYADSVKGRFTISADTSKNTAYLQMNSLRAEDTAVYYCARTYGIYDLYVDYTEYVMDYWGQGTLVTVSSGGSSRSSSSGGGGSGGGGDIQMTQSPSSLSASGGSGQITVTCRASGFYPWNITLSWRQDGVSLSHDTQQWGDVLPDGQGTYQTWVATRISQGEEQRFTCYMEHSGQHSTHPVPSGKGSHHHHHH
# notes: Expressed in HEK293 (Expi293)
# B12: α1-α2 variant 20 (designed binder)
# chain: EPHSLRYNLTVLSWDGSVQSGFLTEVHLDGQPFLRCDRQKCRAKPQGQWAEDVLGNKTWDRETRDLTAWGKDLRMTLAHIKDQKEGLHSLQEIRVCEIHEDNSTRSSQHFYYDGELFLSQNLETLEWTMPQSSRAQTLAMNVRNFLKEDAMQTDTHYRAMHADCLFELRRYLKSGVVLRRTVPPMVQVTRSEASGGSGDRVTITCRASQDVSTAVAWYQQKPGKAPKLLIYSASFLYSGVPSRFSGSGSGTDFTLTISSLQPEDFATYYCQQSYTTPPTFGQGTKVEIKGGSSRSSSSGGGGSGGGGEVQLVESGGGLVQPGGSLRLSCAASGFTFTSTGISWVRQAPGKGLEWVGRIYPTNGSTNYADSVKGRFTISADTSKNTAYLQMNSLRAEDTAVYYCARTYGIYDLYVDYTEYVMDYWGQGTLVTVSSGGSSRSSSSGGGGSGGGGDIQMTQSPSSLSASGGSGQITVTCRASGFYPWNITLSWRQDGVSLSHDTQQWGDVLPDGQGTYQTWVATRISQGEEQRFTCYMEHSGQHSTHPVPSGKGSHHHHHH
# notes: Expressed in HEK293 (Expi293)
# Key:
# human NKG2D-Fc [1] = target: T1, human NKG2D-Fc (human, UniProt P26718 78-216, limits assumed); assay: phage ELISA: ULBP3 variant displayed on phage titrated against NKG2D
# T1 construct: not shown: Fc part
# T1 sequence (looked up): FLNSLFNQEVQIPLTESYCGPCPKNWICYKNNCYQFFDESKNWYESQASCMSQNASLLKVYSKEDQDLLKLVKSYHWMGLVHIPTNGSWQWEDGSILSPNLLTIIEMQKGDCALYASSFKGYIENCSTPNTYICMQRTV
# human NKG2D-Fc [2] = target: T1, human NKG2D-Fc; assay: phage ELISA: ULBP2 variant displayed on phage titrated against NKG2D
# [3] = target: T2, NKG2D on the human NK cell line NKL (human, UniProt P26718 1-216); assay: cell-based or functional assay
# T2 sequence (looked up): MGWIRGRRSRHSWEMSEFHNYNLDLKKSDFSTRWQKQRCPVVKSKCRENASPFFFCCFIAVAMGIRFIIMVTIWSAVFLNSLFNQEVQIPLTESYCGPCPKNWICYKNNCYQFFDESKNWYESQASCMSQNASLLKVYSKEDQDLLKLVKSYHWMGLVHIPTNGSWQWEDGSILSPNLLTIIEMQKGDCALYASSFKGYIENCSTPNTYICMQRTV
# biotinylated human NKG2D [4] = target: T3, biotinylated human NKG2D (human, UniProt P26718 78-216, limits assumed, biotinylated (site not stated)); assay: biolayer interferometry (Octet), Kd = kOFF/kON
# T3 construct: also called recombinant biotinylated NKG2D
# T3 sequence (looked up): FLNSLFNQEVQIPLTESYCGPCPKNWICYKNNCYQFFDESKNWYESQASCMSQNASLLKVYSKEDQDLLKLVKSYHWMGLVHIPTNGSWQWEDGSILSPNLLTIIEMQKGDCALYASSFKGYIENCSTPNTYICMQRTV
# biotinylated human NKG2D [5] = target: T3, biotinylated human NKG2D; assay: biolayer interferometry (Octet), biotinylated human NKG2D; Table 5 compared with Table 3
# Procedure: (§1) In order to characterize the NKG2D binding affinities, both the on-rates and off-rates for the three α1-α2 variant NKG2DLs binding to surface-coated biotinylated human NKG2D were measured using biolayer interferometry (Octet). Binding titrations were performed for each protein using a titration range of 1-100 nM, and the kinetic data were fitted to obtain on-rates, off-rates, and equilibrium binding constants.
# biotinylated human NKG2D [6] = target: T3, biotinylated human NKG2D; assay: biolayer interferometry (Octet), surface-coated biotinylated human NKG2D, titration 1-100 nM
# Procedure: as §1
# biotinylated human NKG2D [7] = target: T3, biotinylated human NKG2D; assay: biolayer interferometry (Octet), biotinylated human NKG2D; the reference is not named
# Procedure: as §1
binder,measurement,setting,value
B1,EC50 (read off the curve),human NKG2D-Fc [1],~0.002 OD268 (phage)
B2,EC50 (read off the curve),human NKG2D-Fc [1],~0.005 OD268 (phage)
B3,EC50 (read off the curve),human NKG2D-Fc [1],~0.004 OD268 (phage)
B4,EC50 (read off the curve),human NKG2D-Fc [2],~0.01 OD268 (phage)
B5,EC50 (read off the curve),human NKG2D-Fc [2],~0.01 OD268 (phage)
B6,EC50 (read off the curve),human NKG2D-Fc [2],~0.01 OD268 (phage)
B7,"killing of FGFR3-expressing P815 target cells by NKL cells (calcein-release assay), fold over WT at 0.78 nM",[3],~15 fold
B8,"killing of FGFR3-expressing P815 target cells by NKL cells (calcein-release assay), fold over WT at 0.78 nM",[3],~15 fold
B9,"EC50 for cell killing, fold improvement over variant 16",[3],~5 fold
same,"killing of FGFR3-expressing P815 target cells by NKL cells (calcein-release assay), fold over variant 16 at 0.2 nM",[3],~3 fold
same,Kd,biotinylated human NKG2D [4],0.062 nM
same,fold enhancement in equilibrium binding affinity against variant 16,biotinylated human NKG2D [5],8 fold
same,koff,biotinylated human NKG2D [6],2.9e-05 s⁻¹
same,kon,biotinylated human NKG2D [6],470000 M⁻¹ s⁻¹
B10,"killing of FGFR3-expressing P815 target cells by NKL cells (calcein-release assay), fold over WT at 0.78 nM",[3],~15 fold
B11,Kd,biotinylated human NKG2D [4],15 nM
same,fold reduction in NKG2D binding affinity,biotinylated human NKG2D [7],250 fold
same,koff,biotinylated human NKG2D [6],0.003 s⁻¹
same,kon,biotinylated human NKG2D [6],200000 M⁻¹ s⁻¹
B12,Kd,biotinylated human NKG2D [4],0.083 nM
same,koff,biotinylated human NKG2D [6],3e-05 s⁻¹
same,kon,biotinylated human NKG2D [6],360000 M⁻¹ s⁻¹
